Laboratory results from the supplement of paper PMC10567573.

B1: STK38L (parent)
chain: FLPGGDMMTLLMKKDTLTEEETQF
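Also: lentivirally expressed fusions sorted by FACS into six bins by GFP to DsRed ratio, PSI derived from sequencing read proportions per bin multiplied by bin number.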

Variants of: B1
Experiment: protein stability index of a GFP-peptide fusion (GPS, HEK-293T) (PSI 1-6); higher = more stable
Details: c terminus: a fixed tail appended
For FLEGGDMMTLLMKKDTLTEEETQF [P3E], the protein stability index was 2.32.
In the case of FLDGGDMMTLLMKKDTLTEEETQF [P3D], the protein stability index is reported as 2.12.
Variant FLLGGDMMTLLMKKDTLTEEETQF [P3L] has a protein stability index of 1.86.
FLHGGDMMTLLMKKDTLTEEETQF [P3H] gave a protein stability index of 1.98.
FLSGGDMMTLLMKKDTLTEEETQF [P3S] gave a protein stability index of 1.4.
FLFGGDMMTLLMKKDTLTEEETQF [P3F] gave a protein stability index of 2.22.
In the case of FLVGGDMMTLLMKKDTLTEEETQF [P3V], the protein stability index is reported as 2.08.
Variant FLNGGDMMTLLMKKDTLTEEETQF [P3N] has a protein stability index of 1.89.
Variant FLGGGDMMTLLMKKDTLTEEETQF [P3G] has a protein stability index of 2.96.
FLCGGDMMTLLMKKDTLTEEETQF [P3C] showed a protein stability index of 2.17.
With FLMGGDMMTLLMKKDTLTEEETQF [P3M] the protein stability index was 2.18.
Work on FLQGGDMMTLLMKKDTLTEEETQF [P3Q] yielded a protein stability index of 2.31.
With FLAGGDMMTLLMKKDTLTEEETQF [P3A] the protein stability index was 1.66.
Work on FLRGGDMMTLLMKKDTLTEEETQF [P3R] yielded a protein stability index of 2.76.
With FLTGGDMMTLLMKKDTLTEEETQF [P3T] the protein stability index was 2.23.
FLKGGDMMTLLMKKDTLTEEETQF [P3K] gave a protein stability index of 2.91.
Work on FLIGGDMMTLLMKKDTLTEEETQF [P3I] yielded a protein stability index of 2.31.
With FLYGGDMMTLLMKKDTLTEEETQF [P3Y] the protein stability index was 1.68.
Variant FLWGGDMMTLLMKKDTLTEEETQF [P3W] has a protein stability index of 2.55.
Variant FLPGGDMMTTLMKKDTLTEEETQF [L10T] has a protein stability index of 3.78.
Variant FLPGGDMMTFLMKKDTLTEEETQF [L10F] has a protein stability index of 2.75.
With FLPGGDMMTELMKKDTLTEEETQF [L10E] the protein stability index was 4.71.
For FLPGGDMMTGLMKKDTLTEEETQF [L10G], the protein stability index was 3.79.
Variant FLPGGDMMTILMKKDTLTEEETQF [L10I] has a protein stability index of 2.64.
For FLPGGDMMTWLMKKDTLTEEETQF [L10W], the protein stability index was 1.98.
In the case of FLPGGDMMTSLMKKDTLTEEETQF [L10S], the protein stability index is reported as 4.07.
FLPGGDMMTVLMKKDTLTEEETQF [L10V] gave a protein stability index of 2.98.
In the case of FLPGGDMMTPLMKKDTLTEEETQF [L10P], the protein stability index is reported as 3.9.
For FLPGGDMMTHLMKKDTLTEEETQF [L10H], the protein stability index was 3.38.
In the case of FLPGGDMMTALMKKDTLTEEETQF [L10A], the protein stability index is reported as 3.73.
For FLPGGDMMTCLMKKDTLTEEETQF [L10C], the protein stability index was 3.45.
In the case of FLPGGDMMTKLMKKDTLTEEETQF [L10K], the protein stability index is reported as 3.11.
Work on FLPGGDMMTNLMKKDTLTEEETQF [L10N] yielded a protein stability index of 4.26.
FLPGGDMMTDLMKKDTLTEEETQF [L10D] showed a protein stability index of 4.67.
For FLPGGDMMTYLMKKDTLTEEETQF [L10Y], the protein stability index was 2.
Variant FLPGGDMMTRLMKKDTLTEEETQF [L10R] has a protein stability index of 3.32.
With FLPGGDMMTMLMKKDTLTEEETQF [L10M] the protein stability index was 3.16.
FLPGGDMMTQLMKKDTLTEEETQF [L10Q] showed a protein stability index of 3.91.
With FLPGGAMMTLLMKKDTLTEEETQF [D6A] the protein stability index was 1.7.
In the case of FLPGGFMMTLLMKKDTLTEEETQF [D6F], the protein stability index is reported as 1.96.
For FLPGGTMMTLLMKKDTLTEEETQF [D6T], the protein stability index was 1.82.
FLPGGMMMTLLMKKDTLTEEETQF [D6M] showed a protein stability index of 2.54.
FLPGGSMMTLLMKKDTLTEEETQF [D6S] gave a protein stability index of 2.07.
With FLPGGYMMTLLMKKDTLTEEETQF [D6Y] the protein stability index was 2.42.
FLPGGWMMTLLMKKDTLTEEETQF [D6W] showed a protein stability index of 1.4.
With FLPGGHMMTLLMKKDTLTEEETQF [D6H] the protein stability index was 1.72.
Work on FLPGGCMMTLLMKKDTLTEEETQF [D6C] yielded a protein stability index of 2.24.
FLPGGEMMTLLMKKDTLTEEETQF [D6E] gave a protein stability index of 2.02.
In the case of FLPGGKMMTLLMKKDTLTEEETQF [D6K], the protein stability index is reported as 1.98.
For FLPGGNMMTLLMKKDTLTEEETQF [D6N], the protein stability index was 2.69.
FLPGGIMMTLLMKKDTLTEEETQF [D6I] showed a protein stability index of 1.85.
With FLPGGRMMTLLMKKDTLTEEETQF [D6R] the protein stability index was 2.18.
With FLPGGVMMTLLMKKDTLTEEETQF [D6V] the protein stability index was 2.33.
Work on FLPGGQMMTLLMKKDTLTEEETQF [D6Q] yielded a protein stability index of 1.96.
FLPGGLMMTLLMKKDTLTEEETQF [D6L] gave a protein stability index of 2.71.
Work on FLPGGPMMTLLMKKDTLTEEETQF [D6P] yielded a protein stability index of 1.87.
For FLPGGDMMTLEMKKDTLTEEETQF [L11E], the protein stability index was 4.25.
With FLPGGDMMTLCMKKDTLTEEETQF [L11C] the protein stability index was 2.63.
FLPGGDMMTLKMKKDTLTEEETQF [L11K] showed a protein stability index of 3.91.
Work on FLPGGDMMTLGMKKDTLTEEETQF [L11G] yielded a protein stability index of 2.89.
FLPGGDMMTLHMKKDTLTEEETQF [L11H] gave a protein stability index of 3.43.
In the case of FLPGGDMMTLDMKKDTLTEEETQF [L11D], the protein stability index is reported as 4.19.
Work on FLPGGDMMTLAMKKDTLTEEETQF [L11A] yielded a protein stability index of 3.29.
FLPGGDMMTLFMKKDTLTEEETQF [L11F] gave a protein stability index of 1.84.
Work on FLPGGDMMTLIMKKDTLTEEETQF [L11I] yielded a protein stability index of 2.53.
With FVPGGDMMTLLMKKDTLTEEETQF [L2V] the protein stability index was 1.78.
Variant FKPGGDMMTLLMKKDTLTEEETQF [L2K] has a protein stability index of 4.24.
With FFPGGDMMTLLMKKDTLTEEETQF [L2F] the protein stability index was 3.08.
FTPGGDMMTLLMKKDTLTEEETQF [L2T] gave a protein stability index of 2.54.
Work on FSPGGDMMTLLMKKDTLTEEETQF [L2S] yielded a protein stability index of 2.6.
With FEPGGDMMTLLMKKDTLTEEETQF [L2E] the protein stability index was 4.84.
Variant FIPGGDMMTLLMKKDTLTEEETQF [L2I] has a protein stability index of 2.07.
FGPGGDMMTLLMKKDTLTEEETQF [L2G] showed a protein stability index of 2.23.
Variant FPPGGDMMTLLMKKDTLTEEETQF [L2P] has a protein stability index of 2.65.
FQPGGDMMTLLMKKDTLTEEETQF [L2Q] showed a protein stability index of 2.15.
For FDPGGDMMTLLMKKDTLTEEETQF [L2D], the protein stability index was 4.38.
Variant FMPGGDMMTLLMKKDTLTEEETQF [L2M] has a protein stability index of 2.33.
FNPGGDMMTLLMKKDTLTEEETQF [L2N] showed a protein stability index of 3.32.
With FHPGGDMMTLLMKKDTLTEEETQF [L2H] the protein stability index was 1.91.
Work on FWPGGDMMTLLMKKDTLTEEETQF [L2W] yielded a protein stability index of 3.
With FCPGGDMMTLLMKKDTLTEEETQF [L2C] the protein stability index was 1.42.
In the case of FYPGGDMMTLLMKKDTLTEEETQF [L2Y], the protein stability index is reported as 3.68.
With FRPGGDMMTLLMKKDTLTEEETQF [L2R] the protein stability index was 4.15.
In the case of FLPGYDMMTLLMKKDTLTEEETQF [G5Y], the protein stability index is reported as 2.63.
For FLPGEDMMTLLMKKDTLTEEETQF [G5E], the protein stability index was 3.72.
FLPGDDMMTLLMKKDTLTEEETQF [G5D] gave a protein stability index of 4.23.
In the case of FLPGIDMMTLLMKKDTLTEEETQF [G5I], the protein stability index is reported as 2.63.
FLPGCDMMTLLMKKDTLTEEETQF [G5C] showed a protein stability index of 2.94.
For FLPGHDMMTLLMKKDTLTEEETQF [G5H], the protein stability index was 2.75.
With FLPGFDMMTLLMKKDTLTEEETQF [G5F] the protein stability index was 2.84.
In the case of FLPGSDMMTLLMKKDTLTEEETQF [G5S], the protein stability index is reported as 3.21.
Variant FLPGMDMMTLLMKKDTLTEEETQF [G5M] has a protein stability index of 3.13.
Variant FLPGTDMMTLLMKKDTLTEEETQF [G5T] has a protein stability index of 3.44.
With FLPGQDMMTLLMKKDTLTEEETQF [G5Q] the protein stability index was 2.72.
